According to ChEMBL document CHEMBL1153321, “Approaches to the simultaneous inactivation of metallo- and serine-beta-lactamases” (Bioorg Med Chem Lett, 2009):

How the values were obtained:
Conditions in all cases: Enterobacter cloacae
[1] = substrate: CC(=O)OCC1=C(C(=O)O)N2C(=O)/C(=N/O)[C@H]2S(=O)(=O)C1
[2] = substrate: CC(=O)OCC1=C(C(=O)O)N2C(=O)/C(=N/O)[C@H]2SC1
[3] = substrate: CC(=O)OCC1=C(C(=O)O)N2C(=O)[C@@H](N(O)C(=O)Cc3ccccc3)[C@H]2SC1
[4] = substrate: CC(=O)OCC1=C(C(=O)O)N2C(=O)[C@@H](N(O)C=O)[C@H]2SC1
[5] = substrate: CC(=O)OCC1=C(C(=O)O)N2C(=O)[C@@H](N)[C@H]2SC1
[6] = substrate: CC(=O)OCC1=C(C(=O)O)N2C(=O)[C@@H](NC(=O)Cc3cccs3)[C@H]2SC1
[7] = substrate: CC(=O)OCC1=C(C(=O)O)N2C(=O)[C@@H](NC=O)[C@H]2SC1
[8] = substrate: CC(=O)OCC1=C(C(=O)O)N2C(=O)[C@@H](NO)[C@H]2SC1
[9] = substrate: CC1=C(C(=O)O)N2C(=O)/C(=N/O)[C@H]2S(=O)(=O)C1

B1: Beta-lactamase (Enterobacter cloacae), P05364 (protein)
chain: MMRKSLCCALLLGISCSALATPVSEKQLAEVVANTITPLMKAQSVPGMAVAVIYQGKPHYYTFGKADIAANKPVTPQTLFELGSISKTFTGVLGGDAIARGEISLDDAVTRYWPQLTGKQWQGIRMLDLATYTAGGLPLQVPDEVTDNASLLRFYQNWQPQWKPGTTRLYANASIGLFGALAVKPSGMPYEQAMTTRVLKPLKLDHTWINVPKAEEAHYAWGYRDGKAVRVSPGMLDAQAYGVKTNVQDMANWVMANMAPENVADASLKQGIALAQSRYWRIGSMYQGLGWEMLNWPVEANTVVEGSDSKVALAPLPVAEVNPPAPPVKASWVHKTGSTGGFGSYVAFIPEKQIGIVMLANTSYPNPARVEAAYHILEALQ
Km [1]: > 200 µM | Km [2]: 366 µM | kcat [2]: 2.56 s⁻¹ | Km [3]: 5 µM | kcat [3]: 0.49 s⁻¹ | Km [4]: 240 µM | kcat [4]: 0.32 s⁻¹ | Km [5]: 290 µM | kcat [5]: 0.46 s⁻¹ | Km [6]: 15.4 µM | kcat [6]: 690 s⁻¹ | Km [7]: 315 µM | kcat [7]: 1180 s⁻¹ | Km [8]: 1450 µM | kcat [8]: 1.6 s⁻¹ | Km [9]: 4.5 µM | kcat [9]: 0.54 s⁻¹
